# Source: US20200140561A1 (BLUEFIN BIOMEDICINE, published 2020)
# Changes are numbered by the printed parent chain.
# T1: human IL1RAP (human, UniProt Q9NPH3 21-570)
# T1 sequence: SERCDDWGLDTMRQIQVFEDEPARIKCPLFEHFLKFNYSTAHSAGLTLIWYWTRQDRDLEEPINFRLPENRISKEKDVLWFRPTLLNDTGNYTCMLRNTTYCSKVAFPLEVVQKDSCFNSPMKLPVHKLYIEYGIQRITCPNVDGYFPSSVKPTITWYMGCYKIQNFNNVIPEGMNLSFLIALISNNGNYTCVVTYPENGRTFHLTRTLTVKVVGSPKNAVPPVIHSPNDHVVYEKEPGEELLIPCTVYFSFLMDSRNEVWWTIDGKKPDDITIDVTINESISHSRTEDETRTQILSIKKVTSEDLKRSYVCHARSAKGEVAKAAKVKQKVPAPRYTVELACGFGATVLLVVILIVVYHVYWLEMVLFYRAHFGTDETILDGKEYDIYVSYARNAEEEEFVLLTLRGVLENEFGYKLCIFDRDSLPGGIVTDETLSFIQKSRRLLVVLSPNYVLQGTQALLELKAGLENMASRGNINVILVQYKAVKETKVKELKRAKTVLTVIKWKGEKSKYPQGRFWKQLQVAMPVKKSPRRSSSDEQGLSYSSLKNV
# B1: 36A10_21B6 (antibody, V domains shown)
# VH: QGQVVESGGGVVQPGRSLRLSCAASGFTFSSYTLHWVRQAPGKGLEWVAVIWYDGSNKYYVDSVKGRFTISRDNSKNTLYLQMNSLRAEDTAVYYCAREYGSGSYYNVYYGMDVWGQGTTVTLSS
# VL: DIVMTQSPLSLPVTPGEPASISCRSSQSLLHSNGYNYLDWYLQKPGQSPHLLIYLASNRASGVPDRFSGSGSGTDFTLKISRVEAEDVGFYYCMQTLQIPLTFGGGTKVEIK
# B2: 5G8_18A1 (antibody, V domains shown)
# VH: QVELQESGPGLVKPSDTLSLTCTVTGGSISTYYWSWIRQPPGKGLEWIGYIFYTGTTNYNPSLKSRVTISVDASKNQFSLKLNSVTAADTAVYYCARDGSLDYWGQGALVTVSS
# VL: DIQMTQSPSSLSASVGDRVTITCRASQSISNYLNWYQQKPGKAPKLLIFVASLLQSGVPSRFSGSGSGTDFTLTISSLQPEDFATYYCQQSYSTPFTFGPGTKLEIK
# B3: 16H2_17D2 (antibody, V domains shown)
# VH: QVQLVESGGGVVQPGGSLRLSCAASGFTFSSHGMHWVRQAPGKGLEWVAVIWYDGSNKFYTDSVQGRFTISRDNSKNTLNLQMNSLRAEDTAVYYCAREGLRAGYYFDFWGQGTLVTVSS
# VL: B2 VL with S28R, N31F, L33S, F49Y, V50A, L53S, Y87F, Y92H, F96L, P100G
# B4: 37E10_15B5 (antibody, V domains shown)
# VH: QVQLVESGGGVVQPGRSLRLSCAASGFTFRSHGMHWVRQAPGKGLEWVAVIWYDGSSEYYADSVKGRFTISRDNSKNTLYLQMNSLRAEDTAVYYCARENVYGSGWFFDYWGQGTLVTVSS
# VL: EIVMTQSPATLSVSPGERASLSCRASQSVGSNLAWYQQRPGQAPRLLIFGASTRATGIPARFSGSRSGTEFTLTISSLQSEDFALYYCQQYNNWPPWTFGQGTKLEIK
# B5: 44E5_15C5 (antibody, V domains shown)
# VH: B4 VH with E58D, Y80F, R87S
# VL: B4 VL with R39K
# Assays:
# Test in all cases: cell-based or functional assay
# human IL1RAP [1] = biological target: T1, human IL1RAP
# human IL1RAP [2] = biological target: T1, human IL1RAP; remark: listed apart in the source
# human IL1RAP [3] = biological target: T1, human IL1RAP; remark: listed apart in the source
# human IL1RAP [4] = biological target: T1, human IL1RAP; remark: listed apart in the source
Binder,"EC50 (inhibition of IL-1beta signalling, HEK-Blue IL-1beta reporter cells, 0.5 ng/ml IL-1beta, Abs. 620 nM) (human IL1RAP [1])","EC50 (inhibition of IL-1alpha signalling, HEK-Blue IL-1beta reporter cells, 0.5 ng/ml IL-1a, Abs. 620 nM) (human IL1RAP [2])","EC50 (inhibition of IL-33 signalling, HEK-Blue IL-33 reporter cells, 0.5 ng/ml IL-33, Abs. 620 nm; partial) (human IL1RAP [3])",EC50 against IL-1α (IL-1 signaling reporter cell assay) (human IL1RAP [4]),EC50 against IL-1β (IL-1 signaling reporter cell assay) (human IL1RAP [4]),"EC50 (inhibition of IL-33 signalling, HEK-Blue IL-33 reporter cells, 0.5 ng/ml IL-33, Abs. 620 nm; partial, lower plateau about 0.4) (human IL1RAP [3])"
B1,0.29 nM,0.66 nM,1.76 nM,–,–,–
B2,0.58 nM,0.83 nM,–,–,–,–
B3,0.1 nM,0.09 nM,–,–,–,–
B4,0.15 nM,0.19 nM,–,< 1 nM,< 1 nM,0.32 nM
B5,0.17 nM,0.18 nM,–,< 1 nM,< 1 nM,0.44 nM
